In IntAct's records for PubMed 31515488:

B1: Transcription factor 12 (Homo sapiens), Q99081-3 (parent)
chain: MNPQQQRMAAIGTDKELSDLLDFSAMFSPPVNSGKTRPTTLGSSQFSGSGIDERGGTTSWGTSGQPSPSYDSSRGFTDSPHYSDHLNDSRLGAHEGLSPTPFMNSNLMGKTSERGSFSLYSRDTGLPGCQSSLLRQDLGLGSPAQLSSSGKPGTAYYSFSATSSRRRPLHDSAALDPLQAKKVRKVPPGLPSSVYAPSPNSDDFNRESPSYPSPKPPTSMFASTFFMQDGTHNSSDLWSSSNGMSQPGFGGILGTSTSHMSQSSSYGNLHSHDRLSYPPHSVSPTDINTSLPPMSSFHRGSTSSSPYVAASHTPPINGSDSILGTRGNAAGSSQTGDALGKALASIYSPDHTSSSFPSNPSTPVGSPSPLTGTSQWPRPGGQAPSSPSYENSLHSLKNRVEQQLHEHLQDAMSFLKDVCEQSRMEDRLDRLDDAIHVLRNHAVGPSTSLPAGHSDIHSLLGPSHNAPIGSLNSNYGGSSLVASSRSASMVGTHREDSVSLNGNHSVLSSTVTTSSTDLNHKTQENYRGGLQSQSGTVVTTEIKTENKEKDENLHEPPSSDDMKSDDESSQKDIKVSSRGRTSSTNEDEDLNPEQKIEREKERRMANNARERLRVRDINEAFKELGRMCQLHLKSEKPQTKLLILHQAVAVILSLEQQVRERNLNPKAACLKRREEEKVSAVSAEPPTTLPGTHPGLSETTNPMGHM
partner: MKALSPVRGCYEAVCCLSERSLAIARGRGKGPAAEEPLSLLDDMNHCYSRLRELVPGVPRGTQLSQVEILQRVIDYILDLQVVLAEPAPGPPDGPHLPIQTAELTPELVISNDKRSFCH
B2: Zinc finger CCHC domain-containing protein 10 (Homo sapiens), Q8TBK6 (parent)
chain: MATPMHRLIARRQAFDTELQPVKTFWILIQPSIVISEANKQHVRCQKCLEFGHWTYECTGKRKYLHRPSRTAELKKALKEKENRLLLQQSIGETNVERKAKKKRSKSVTSSSSSSSDSSASDSSSESEETSTSSSSEDSDTDESSSSSSSSASSTTSSSSSDSDSDSSSSSSSSTSTDSSSDDEPPKKKKKK
B3: Protein FAM200C (Homo sapiens), Q8IZ13 (parent)
chain: MSKKRKWDDDYVRYWFTCTTEVDGTQRPQCVLCNSVFSNADLRPSKLSDHFNRQHGGVAGHDLNSLKHMPAPSDQSETLKAFGVASHEDTLLQASYQFAYLCAKEKNPHTVAEKLVKPCALEIAQIVLGPDAQKKLQQVPLSDDVIHSRIDEMSQDILQQVLEDIKASPLKVGIQLAETTDMDDCSQLMAFVRYIKEREIVEEFLFCEPLQLSMKGIDVFNLFRDFFLKHKIALDVCGSVCTDGASSMLGENSEFVAYVKKEIPHIVVTHCLLNPHALVIKTLPTKLRDALFTVVRVINFIKGRAPNHRLFQAFFEEIGIEYSVLLFHTEMRWLSRGQILTHIFEMYEEINQFLHHKSSNLVDGFENKEFKIHLAYLADLFKHLNELSASMQRTGMNTVSAREKLSAFVRKFPFWQKRIEKRNFTNFPFLEEIIVSDNEGIFIAAEITLHLQQLSNFFHGYFSIGDLNEASKWILDPFLFNIDFVDDSYLMKNDLAELRASGQILMEFETMKLEDFWCAQFTAFPNLAKTALEILMPFATTYLCELGFSSLLHFKTKSRSCFNLSDDIRVAISKKVPRFSDIIEQKLQLQQKSL
partner: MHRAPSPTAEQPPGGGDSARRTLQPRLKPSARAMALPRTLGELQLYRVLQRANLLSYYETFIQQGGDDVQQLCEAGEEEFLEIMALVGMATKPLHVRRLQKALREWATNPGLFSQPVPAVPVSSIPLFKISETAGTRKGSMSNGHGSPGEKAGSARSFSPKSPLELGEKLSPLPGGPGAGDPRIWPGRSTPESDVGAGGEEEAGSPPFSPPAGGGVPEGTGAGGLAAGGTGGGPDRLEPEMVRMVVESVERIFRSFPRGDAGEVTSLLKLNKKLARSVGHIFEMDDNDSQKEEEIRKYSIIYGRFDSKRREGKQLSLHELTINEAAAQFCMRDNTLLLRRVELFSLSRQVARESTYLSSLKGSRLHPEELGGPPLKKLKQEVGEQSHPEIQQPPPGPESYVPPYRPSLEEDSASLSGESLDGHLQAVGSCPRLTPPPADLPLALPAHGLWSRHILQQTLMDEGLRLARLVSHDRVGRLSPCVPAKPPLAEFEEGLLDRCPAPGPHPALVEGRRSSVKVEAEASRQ
B4: Hematopoietic prostaglandin D synthase (Homo sapiens), O60760 (parent)
chain: MPNYKLTYFNMRGRAEIIRYIFAYLDIQYEDHRIEQADWPEIKSTLPFGKIPILEVDGLTLHQSLAIARYLTKNTDLAGNTEMEQCHVDAIVDTLDDFMSCFPWAEKKQDVKEQMFNELLTYNAPHLMQDLDTYLGGREWLIGNSVTWADFYWEICSTTLLVFKPDLLDNHPRLVTLRKKVQAIPAVANWIKRRPQTKL
partner: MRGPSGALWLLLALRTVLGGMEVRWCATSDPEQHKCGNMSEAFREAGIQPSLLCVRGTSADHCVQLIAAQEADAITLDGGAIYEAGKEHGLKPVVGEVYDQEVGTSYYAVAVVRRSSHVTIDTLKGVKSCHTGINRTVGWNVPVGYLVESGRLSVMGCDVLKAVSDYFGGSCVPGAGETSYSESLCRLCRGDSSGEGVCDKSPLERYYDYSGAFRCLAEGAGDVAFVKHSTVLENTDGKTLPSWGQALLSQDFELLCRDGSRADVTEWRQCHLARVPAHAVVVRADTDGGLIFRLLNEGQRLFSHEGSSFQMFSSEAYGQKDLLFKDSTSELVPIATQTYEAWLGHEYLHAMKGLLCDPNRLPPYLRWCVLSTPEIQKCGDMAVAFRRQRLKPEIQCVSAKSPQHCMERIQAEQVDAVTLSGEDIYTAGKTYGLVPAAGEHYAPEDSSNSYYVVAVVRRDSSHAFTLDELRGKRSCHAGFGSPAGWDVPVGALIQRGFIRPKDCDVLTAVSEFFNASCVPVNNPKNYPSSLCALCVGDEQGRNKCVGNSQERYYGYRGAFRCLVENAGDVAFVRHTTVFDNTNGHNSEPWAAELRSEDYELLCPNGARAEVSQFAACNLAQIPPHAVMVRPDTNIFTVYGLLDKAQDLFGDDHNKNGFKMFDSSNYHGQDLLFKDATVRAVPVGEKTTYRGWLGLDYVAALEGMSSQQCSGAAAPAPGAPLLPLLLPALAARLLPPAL
B5: Notch homolog 2 N-terminal-like protein A (Homo sapiens), Q7Z3S9 (parent)
chain: MCVTYHNGTGYCKCPEGFLGEYCQHRDPCEKNRCQNGGTCVAQAMLGKATCRCASGFTGEDCQYSTSHPCFVSRPCLNGGTCHMLSRDTYECTCQVGFTGKECQWTDACLSHPCANGSTCTTVANQFSCKCLTGFTGQKCETDVNECDIPGHCQHGGTCLNLPGSYQCQCLQGFTGQYCDSLYVPCAPSPCVNGGTCRQTGDFTFECNCLPETVRRGTELWERDREVWNGKEHDEN
partner: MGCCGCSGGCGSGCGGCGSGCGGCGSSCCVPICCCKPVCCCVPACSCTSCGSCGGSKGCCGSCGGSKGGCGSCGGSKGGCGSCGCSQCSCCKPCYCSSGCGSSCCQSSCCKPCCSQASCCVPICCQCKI
B6: "Delta(3,5)-Delta(2,4)-dienoyl-CoA isomerase, mitochondrial" (Homo sapiens), Q13011 (parent)
chain: MAAGIVASRRLRDLLTRRLTGSNYPGLSISLRLTGSSAQEEASGVALGEAPDHSYESLRVTSAQKHVLHVQLNRPNKRNAMNKVFWREMVECFNKISRDADCRAVVISGAGKMFTAGIDLMDMASDILQPKGDDVARISWYLRDIITRYQETFNVIERCPKPVIAAVHGGCIGGGVDLVTACDIRYCAQDAFFQVKEVDVGLAADVGTLQRLPKVIGNQSLVNELAFTARKMMADEALGSGLVSRVFPDKEVMLDAALALAAEISSKSPVAVQSTKVNLLYSRDHSVAESLNYVASWNMSMLQTQDLVKSVQATTENKELKTVTFSKL

Variants of: B1
Settings: with id3_human ID3, Q02535

Row | effect of a mutation on the interaction | Variant
1 | with no effect | S446F
2 | with no effect | R74G
3 | with no effect | A155T

Variants of: B2
Settings: with cep70_human CEP70, Q8NHQ1
cep70_human CEP70, Q8NHQ1, sequence (Q8NHQ1 whole entry): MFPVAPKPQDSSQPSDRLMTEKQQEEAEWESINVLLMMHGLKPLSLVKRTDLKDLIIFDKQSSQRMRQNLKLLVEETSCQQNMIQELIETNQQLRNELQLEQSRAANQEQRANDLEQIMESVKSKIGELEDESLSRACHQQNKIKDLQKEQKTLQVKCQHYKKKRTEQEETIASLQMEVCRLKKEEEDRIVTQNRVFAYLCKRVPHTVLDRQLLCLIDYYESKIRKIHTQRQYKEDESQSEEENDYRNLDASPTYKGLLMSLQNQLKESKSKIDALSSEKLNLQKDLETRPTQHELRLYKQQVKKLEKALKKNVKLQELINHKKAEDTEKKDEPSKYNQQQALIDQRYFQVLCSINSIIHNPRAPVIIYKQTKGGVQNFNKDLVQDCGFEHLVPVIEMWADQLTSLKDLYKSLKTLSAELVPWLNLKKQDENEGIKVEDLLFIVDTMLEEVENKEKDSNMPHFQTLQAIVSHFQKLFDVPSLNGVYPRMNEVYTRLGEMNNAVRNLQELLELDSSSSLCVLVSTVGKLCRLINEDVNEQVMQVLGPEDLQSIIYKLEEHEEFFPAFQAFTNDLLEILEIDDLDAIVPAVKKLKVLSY

Row | effect of a mutation on the interaction | Variant
4 | with no effect | S153P

Variants of: B2
Settings: with dzip3_human DZIP3, Q86Y13
dzip3_human DZIP3, Q86Y13, sequence (Q86Y13 whole entry): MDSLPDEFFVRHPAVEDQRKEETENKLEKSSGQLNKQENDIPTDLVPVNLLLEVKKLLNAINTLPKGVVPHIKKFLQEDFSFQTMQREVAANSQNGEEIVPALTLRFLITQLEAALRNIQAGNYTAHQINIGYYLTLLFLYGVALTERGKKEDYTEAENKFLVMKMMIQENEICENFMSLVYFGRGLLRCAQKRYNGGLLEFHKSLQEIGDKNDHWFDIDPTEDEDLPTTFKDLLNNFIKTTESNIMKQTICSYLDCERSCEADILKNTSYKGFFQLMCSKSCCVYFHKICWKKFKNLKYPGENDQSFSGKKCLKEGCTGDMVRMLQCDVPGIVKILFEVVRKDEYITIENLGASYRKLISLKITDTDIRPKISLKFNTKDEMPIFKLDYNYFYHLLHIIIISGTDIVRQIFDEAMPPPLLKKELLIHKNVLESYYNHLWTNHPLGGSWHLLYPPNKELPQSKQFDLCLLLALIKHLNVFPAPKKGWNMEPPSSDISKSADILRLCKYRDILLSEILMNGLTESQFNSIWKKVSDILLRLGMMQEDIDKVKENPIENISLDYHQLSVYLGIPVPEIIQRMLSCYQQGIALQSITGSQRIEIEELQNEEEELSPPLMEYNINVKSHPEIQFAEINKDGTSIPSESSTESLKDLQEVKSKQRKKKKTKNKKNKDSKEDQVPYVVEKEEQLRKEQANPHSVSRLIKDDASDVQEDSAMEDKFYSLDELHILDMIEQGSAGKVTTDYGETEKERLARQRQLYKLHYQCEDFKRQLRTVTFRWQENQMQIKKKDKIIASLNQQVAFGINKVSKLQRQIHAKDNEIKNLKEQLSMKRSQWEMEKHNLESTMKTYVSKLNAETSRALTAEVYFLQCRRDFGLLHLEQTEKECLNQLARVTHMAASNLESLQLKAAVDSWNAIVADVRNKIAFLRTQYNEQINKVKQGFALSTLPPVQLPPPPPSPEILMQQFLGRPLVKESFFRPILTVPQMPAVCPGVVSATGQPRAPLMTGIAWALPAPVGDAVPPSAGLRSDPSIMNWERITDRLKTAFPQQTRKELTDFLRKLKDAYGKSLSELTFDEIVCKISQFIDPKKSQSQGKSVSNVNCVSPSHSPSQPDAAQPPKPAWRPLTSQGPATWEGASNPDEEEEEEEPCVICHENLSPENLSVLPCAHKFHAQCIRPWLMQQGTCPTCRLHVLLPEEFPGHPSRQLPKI

Row | effect of a mutation on the interaction | Variant
5 | with no effect | S153P

Variants of: B3
Settings: with nab2_human NAB2, Q15742

Row | effect of a mutation on the interaction | Variant
6 | with no effect | M248K
7 | with no effect | A523S

Variants of: B4
Settings: with trfm_human MELTF

Row | effect of a mutation on the interaction | Variant
8 | disrupting interaction strength | M128T

Variants of: B5
Settings: with kra56_human KRTAP5-6, Q6L8G9

Row | effect of a mutation on the interaction | Variant
9 | with no effect | R74Q
10 | with no effect | A115T

Variants of: B6
Settings: with traf1_human TRAF1, Q13077
traf1_human TRAF1, Q13077, sequence (Q13077 whole entry): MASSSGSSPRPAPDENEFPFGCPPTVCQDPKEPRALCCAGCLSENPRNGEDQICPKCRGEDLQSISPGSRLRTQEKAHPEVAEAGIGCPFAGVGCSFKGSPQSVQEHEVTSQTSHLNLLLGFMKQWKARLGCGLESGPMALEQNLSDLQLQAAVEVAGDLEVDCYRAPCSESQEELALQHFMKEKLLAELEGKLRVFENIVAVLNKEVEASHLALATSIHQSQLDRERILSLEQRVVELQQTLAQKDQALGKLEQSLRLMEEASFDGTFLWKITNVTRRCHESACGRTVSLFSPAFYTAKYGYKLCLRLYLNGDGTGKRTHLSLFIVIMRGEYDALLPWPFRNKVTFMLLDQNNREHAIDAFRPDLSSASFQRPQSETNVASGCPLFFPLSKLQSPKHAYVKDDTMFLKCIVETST

Row | effect of a mutation on the interaction | Variant
11 | with no effect | E41A
